Earlier results as cited in publication PMC2757418.

Target: netrin-1 (UniProt O95631)

Substance: DCC (from UniProt P43146)
- Kd: 10 nM
